Source: patent US20110212105A1

Target: A2MR receptor on Vero cells (monkey (Vero cell line))
Experiment: cell-based or functional assay

RAPR13 (recombinant human LRPAP1 / receptor-associated protein with an N-terminal tag of 6 histidines and a thrombin cleavage site), sequence (P30533 other isoform, or with tags, fused parts or gaps limits assumed): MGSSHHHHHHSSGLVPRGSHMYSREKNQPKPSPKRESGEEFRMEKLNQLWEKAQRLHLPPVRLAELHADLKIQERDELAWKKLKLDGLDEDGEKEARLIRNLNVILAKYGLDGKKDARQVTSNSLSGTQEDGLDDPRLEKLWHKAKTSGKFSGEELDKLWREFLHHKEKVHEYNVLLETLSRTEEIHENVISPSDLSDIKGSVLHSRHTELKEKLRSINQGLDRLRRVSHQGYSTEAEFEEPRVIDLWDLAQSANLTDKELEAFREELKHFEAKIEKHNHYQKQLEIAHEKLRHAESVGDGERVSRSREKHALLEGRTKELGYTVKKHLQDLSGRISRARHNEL

Work on “RAPR13 (recombinant human LRPAP1 / receptor-associated protein with an N-terminal tag of 6 histidines and a thrombin cleavage site) (from UniProt P30533 35-357) (ligand)” yielded an inhibition of the infection of Vero cells by DV1 (West Pac 74), lytic plaque assay, RAPR13 at 100 µg/mL of 65%, an inhibition of the infection of Vero cells by DV2 (S16803), lytic plaque assay, RAPR13 at 100 µg/mL of 76% and an inhibition of the infection of Vero cells by DV3 (CH53489), lytic plaque assay, RAPR13 at 100 µg/mL of 60%. It also gave an inhibition of the infection of Vero cells by DV4 (TVP360), lytic plaque assay, RAPR13 at 100 µg/mL of 75%.
